Results on four molecules are retold here after patent publication US20060287501A1 (Pieris, published 2006).

Assay [1] deals with T1, recombinant Nogo-A fragment NI-Fr4 (rat, UniProt Q9JK11 233-941).
T1 construct: Truncated rat Nogo-A with N-terminal Strep-tag II and C-terminal His6
T1 sequence: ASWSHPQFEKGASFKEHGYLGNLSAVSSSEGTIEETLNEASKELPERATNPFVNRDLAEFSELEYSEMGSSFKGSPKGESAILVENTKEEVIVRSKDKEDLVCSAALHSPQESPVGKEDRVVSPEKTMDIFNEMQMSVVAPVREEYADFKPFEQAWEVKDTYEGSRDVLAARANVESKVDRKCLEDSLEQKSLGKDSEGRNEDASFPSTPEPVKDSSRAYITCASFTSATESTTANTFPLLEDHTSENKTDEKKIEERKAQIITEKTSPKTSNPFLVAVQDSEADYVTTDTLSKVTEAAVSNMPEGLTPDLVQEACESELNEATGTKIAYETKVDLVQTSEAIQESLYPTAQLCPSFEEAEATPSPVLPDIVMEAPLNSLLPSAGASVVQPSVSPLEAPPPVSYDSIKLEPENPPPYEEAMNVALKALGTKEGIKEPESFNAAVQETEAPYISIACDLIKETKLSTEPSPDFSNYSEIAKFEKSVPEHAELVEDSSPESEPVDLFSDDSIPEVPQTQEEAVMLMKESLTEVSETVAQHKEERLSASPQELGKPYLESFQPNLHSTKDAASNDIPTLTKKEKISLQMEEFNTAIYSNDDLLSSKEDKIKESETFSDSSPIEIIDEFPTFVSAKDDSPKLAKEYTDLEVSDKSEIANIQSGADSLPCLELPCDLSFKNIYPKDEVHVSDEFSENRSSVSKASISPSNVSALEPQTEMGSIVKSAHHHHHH
The experiment in a line: SPR (Biacore X); NI-Fr4 on Ni/NTA chip via His6, Fab (pASK107, Strep-tag II) at 0.25-6.8 µM, equilibrium fit. On the procedure:
(§1) The thermodynamic affinity for the recombinant Nogo-A fragment NI-Fr4 was determined both for the II.1.8 mutant and for the wild-type IN-1 Fab fragment using the method of real time surface plasmon resonance (SPR) on a Biacore-X® system equipped with an Ni/NTA-derivatized sensor chip® (Biacore AB, Uppsala, Sweden). PBS containing 0.005% (v/v) surfactant P20 was used as continuous flow buffer as well as for dilution of proteins. Analysis was performed at 25° C. using a flow rate of 35 μl/min.
(§2) Then the Fab fragment (produced by means of the vector pASK107 and purified via the Strep-tag II; see Example 1)) was injected at a defined concentration (between 0.25 and 6.8 μM) for 2 minutes, followed by buffer flow for 4 minutes. The chip surface was regenerated using 70 μl 0.35 M EDTA, pH 8.0 in flow buffer prior to the next measurement. Each time-dependent binding isotherm of the Fab fragment was corrected for the background signal that was detected in the flow channel without NI-Fr4 using BIAevaluation software (Version 3.0). Resonance unit values for the bound Fab fragment at equilibrium for each applied concentration were then deduced and fitted (Voss and Skerra, supra) by non-linear least squares regression using an equation of the type y=a*x/(b+x). […]

The target in assay [2] is T2, recombinant Nogo-A fragment NI-Fr2 (rat, UniProt Q9JK11 233-941, labelled with digoxigenin (molar ratio 5:1) in the colony screening assay).
T2 construct: Truncated rat Nogo-A with C-terminal Strep-tag, made in the E. coli periplasm; also called MI-Fr2; wild-type NI-Fr2
T2 sequence: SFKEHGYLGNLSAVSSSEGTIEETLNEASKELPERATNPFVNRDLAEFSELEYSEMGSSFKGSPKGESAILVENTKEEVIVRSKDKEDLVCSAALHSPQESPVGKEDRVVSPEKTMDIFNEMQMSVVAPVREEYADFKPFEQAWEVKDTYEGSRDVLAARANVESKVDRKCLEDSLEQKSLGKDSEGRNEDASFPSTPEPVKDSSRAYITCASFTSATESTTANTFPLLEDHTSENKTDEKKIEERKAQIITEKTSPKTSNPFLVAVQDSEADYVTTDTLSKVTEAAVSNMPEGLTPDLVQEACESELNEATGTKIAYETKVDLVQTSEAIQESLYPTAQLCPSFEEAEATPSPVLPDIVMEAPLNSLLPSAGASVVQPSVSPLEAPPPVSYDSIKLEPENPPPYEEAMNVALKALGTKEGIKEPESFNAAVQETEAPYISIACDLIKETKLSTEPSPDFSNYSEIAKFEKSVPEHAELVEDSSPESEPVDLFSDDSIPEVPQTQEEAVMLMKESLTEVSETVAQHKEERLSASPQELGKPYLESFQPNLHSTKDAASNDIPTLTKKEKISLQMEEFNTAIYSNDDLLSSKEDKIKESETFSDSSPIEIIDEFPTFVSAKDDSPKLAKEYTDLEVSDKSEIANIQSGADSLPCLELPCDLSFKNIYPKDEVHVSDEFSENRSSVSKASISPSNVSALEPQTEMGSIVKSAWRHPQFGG
The experiment in a line: ELISA, wells coated with NI-Fr2, bound Fab detected with anti-human Ckappa antibody-alkaline phosphatase, delta A405/delta t. On the procedure: Antigen-binding activity of the mutant Fab fragments was subsequently tested by ELISA using the recombinant NI-Fr2 for coating of the microtitre plate wells (FIG. 2).
ELISA was carried out in a 96 well microtitre plate (Becton Dickinson, Heidelberg, Germany) at ambient temperature with incubation steps of 1 h unless otherwise stated. Three washing steps with PBS/T were used after each incubation, and residual liquid was removed thoroughly. The wells were coated for 4 h with 50 μl of a solution of MI-Fr2 at concentrations between 180 and 200 μg/ml in PBS buffer and then blocked with 200 μl 3% (w/v) BSA, 0.5% (v/v) Tween 20 in PBS. After washing, 50 μl of the purified recombinant Fab fragment was applied at a dilution series in PBS/T. The wells were then incubated with 50 μl anti-human Cκ antibody conjugated with alkaline phosphatase (Sigma), diluted 1:1000 in PBS/T. Signals were finally developed in the presence of p-nitrophenyl phosphate (Voss and Skerra, (1997) Protein Eng., 10, 975-982). Enzymatic activity was measured at 25° C. as the change in absorbance at 405 nm per min with a SpectraMAX 250 instrument (Molecular Devices, Sunnyvale, Calif.). The data were corrected for background values determined in wells that were merely coated with BSA and fitted by non-linear least squares regression as described by Voss and Skerra, supra
In general terms: An ELISA detects its analyte on a solid surface through an enzyme-linked reagent.

A further assay addresses T3, BSA (bovine, UniProt P02769 25-607).
T3 construct: Control antigen
As to the kind of experiment: ELISA; BSA as antigen.

Assay [3] concerns the target T2, recombinant Nogo-A fragment NI-Fr2. The experiment in a line: ELISA; NI-Fr2 coated, purified Fab (pASK88, His6), anti-human Ckappa-AP detection.
In assay [4] the target is T1, recombinant Nogo-A fragment NI-Fr4. The experiment in a line: SPR (Biacore X); NI-Fr4 on Ni/NTA chip, equilibrium fit. On the procedure:
as §1, §2
For orientation: Surface plasmon resonance follows binding to a sensor surface in real time, without labels.

T3 sequence (P02769 25-607 limits assumed): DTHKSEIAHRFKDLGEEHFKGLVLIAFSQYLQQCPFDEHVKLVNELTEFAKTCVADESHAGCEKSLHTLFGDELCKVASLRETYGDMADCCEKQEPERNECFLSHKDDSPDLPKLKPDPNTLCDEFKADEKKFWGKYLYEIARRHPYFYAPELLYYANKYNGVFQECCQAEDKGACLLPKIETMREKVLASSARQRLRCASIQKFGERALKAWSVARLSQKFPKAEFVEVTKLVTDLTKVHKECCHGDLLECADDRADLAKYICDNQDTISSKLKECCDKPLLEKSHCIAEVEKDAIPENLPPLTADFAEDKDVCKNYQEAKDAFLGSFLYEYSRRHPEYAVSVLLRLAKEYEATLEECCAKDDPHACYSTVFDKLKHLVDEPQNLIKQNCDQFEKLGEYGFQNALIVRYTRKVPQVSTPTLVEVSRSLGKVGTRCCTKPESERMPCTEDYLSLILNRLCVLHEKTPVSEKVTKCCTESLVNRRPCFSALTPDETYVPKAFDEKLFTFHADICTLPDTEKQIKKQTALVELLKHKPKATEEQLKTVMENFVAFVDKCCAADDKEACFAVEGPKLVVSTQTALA

B1: recombinant wild-type IN-1 Fab fragment (Fab, V domains shown)
VH: EVKLHESGPGLVRPGTSVKISCKASGYTFTNYWLGWVKQRPGHGLEWIGDIYPGGGYTNYNEKFKGKATLTADTSSSTAYMQLSSLTSEDSAVYFCARFYYGSSYWYFDVWGQGTTVTVSS
VL: DIELTQSPAIMAASVGETVTITCGASENIYGALNWYQRKQGKSPQLLIYGATNLADGMSSRFSGSGSGRQYSLKISSLHPDDVATYYCQNVLSTPRTFGAGTKLEIK
notes: Formats: pASK106 (ABD on light chain) in the colony screen, pASK88 (His6 on heavy chain) in ELISA, staining and neurite assay, pASK107 (Strep-tag II) in SPR; also called IN-1 wt; IN-1 (wild-type) Fab fragment
What is called Kd is the equilibrium constant for the complex coming apart. B1: the equilibrium dissociation constant (Kd) in assay [1] was found to be 7.8 µM.

B2: I.2.6 Fab fragment (IN-1 mutant) (Fab, V domains shown)
VH: EVKLHESGPGLVRPGTSVKISCKASGYTFTNYWLGWVKQRPGHGLEWIGDIYPGGGYTNYNEKFKGKATLTADTSSSTAYMQLSSLTSEDSAVYFCARFYYGSSYWYFDVWGQGTTVTVSS
VL: DIELTQSPAIMAASVGETVTITCGASENIYGALNWYQRKQGKSPQLLIYGATNLADGMSSRFSGSGSGRQYSLKISSLHPDDVATYYCQNVLRVPCTFGAGTKLEIK
notes: Chimeric Fab, human IgG1/kappa constant domains; also called mutant I.2.6; original I.2.6 Fab fragment
For B2, the results for the binding result (in assay [2]; in the assay with BSA) were “binds” and “no binding”, respectively.

B3: I.1.4 Fab fragment (IN-1 mutant) (Fab, V domains shown)
VH: EVKLHESGPGLVRPGTSVKISCKASGYTFTNYWLGWVKQRPGHGLEWIGDIYPGGGYTNYNEKFKGKATLTADTSSSTAYMQLSSLTSEDSAVYFCARFYYGSSYWYFDVWGQGTTVTVSS
VL: DIELTQSPAIMAASVGETVTITCGASENIYGALNWYQRKQGKSPQLLIYGATNLADGMSSRFSGSGSGRQYSLKISSLHPDDVATYYCQNVLPVPWTFGAGTKLEIK
notes: Chimeric Fab, human IgG1/kappa constant domains
Regarding B3, in assay [3], the binding result is listed as “binds”.

B4: II.1.8 Fab fragment (Fab, V domains shown)
VH: EVKLHESGPGLVRPGTSVKISCKASGYTFTNYWLGWVKQRPGHGLEWIGDIYPGGGYTNYNEKFKGKATLTADTSSSTAYMQLSSLTSEDSAVYFCARFYYGSSYWYFDVWGQGTTVTVSS
VL: DIELTQSPAIMAASVGETVTITCGASENIYGALNWYQRKQGKSPQLLIYGATNLADGMSSRFSGSGSGRQYSLKISSLHPDDVATYYCQNINRVPVTFGAGTKLEIK
notes: also called II.1.8 mutant; antibody fragment II.1.8
Regarding B4, in assay [4], the “fold improvement of KD over the wild-type IN-1 Fab fragment” value was 8 fold. In assay [1], the dissociation constant (Kd) was 1.04 µM.
